Data on three substances can be found in article PMC5863373.

Assay [1] deals with human mitochondrial lysyl-tRNA synthetase with a C-terminal HA-tag (human) (UniProt Q15046). The assay is described as follows: AlphaScreen or HTRF; HTRF as in a1, Pol on mLysRS in the presence of 1 μM tRNA3^Lys. A general note: Bead proximity is the source of the signal in Alpha formats.
For assay [2] the target is unchanged. Put plainly: AlphaScreen or HTRF; HTRF; 1.5 nM mLysRS-HA or mLysRS∆C-HA (dimer) with rising His-tagged Pol (0.02 to 10 nM dimer), IN (0.5 to 125 nM dimer) or TF (1 to 1000 nM monomer); 10 mM Tris-HCl pH 7.5, 50 mM NaCl, 10 mM 2-mercaptoethanol, BSA 1 mg/ml, 1 h on ice; anti-H6-Eu3+ cryptate and anti-HA-XL665; apparent Kd.
Assay [3] has the same target. Described as above. The source holds these as a separate data set.
The target in assay [4] is p38 (Homo sapiens) (UniProt Q13155). The assay is described as follows: SPR. The following applies: cited from earlier work.
p38 (Homo sapiens), sequence (Q13155 whole entry): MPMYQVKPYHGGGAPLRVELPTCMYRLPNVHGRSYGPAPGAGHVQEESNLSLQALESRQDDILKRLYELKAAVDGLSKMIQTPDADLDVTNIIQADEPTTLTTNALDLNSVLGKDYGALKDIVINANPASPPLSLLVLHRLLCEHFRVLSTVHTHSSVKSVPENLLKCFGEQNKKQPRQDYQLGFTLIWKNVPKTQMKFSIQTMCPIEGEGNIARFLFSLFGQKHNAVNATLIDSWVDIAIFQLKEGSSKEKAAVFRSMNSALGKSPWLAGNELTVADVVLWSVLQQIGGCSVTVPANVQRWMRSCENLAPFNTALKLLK

Take “HIV-1 Pol polyprotein (Pol region of GagPol) with a C-terminal His6 tag (natural protein)”: the values for the Kd in assay [1] and in assay [2] were 0.71 nM and 1.3 nM, respectively.

Regarding “HIV-1 integrase with a C-terminal His6 tag (domain or fragment)”, the Kd in assay [2] was found to be 11.8 nM; in assay [3], 12.9 nM.

Consider mLysRS (from UniProt Q15046), for which the Kd in assay [4] is 0.3 nM.
